# Laboratory results as given in paper PMC7190724, “Improved GPCR ligands from nanobody tethering” (Nature Communications, 2020).
# B1: VHHPTHR: nanobody that recognizes PTHR1 itself, sequence from the literature (named 22A3) (antibody, V domains shown)
# VH: EVQLVESGGGLVQAGGSLRLSCAASGNIFANNIMGWYRQPPGKEREFVAHVSHDGDSMYAVSVKGRFAISRKDATNLYLQMNSLKPEDTAIYFCRLLNIPTQGRMEGFWGQGTQVTVSS
# How the values were obtained:
# PTHR1 = test: Flow cytometry binding to HEK293 expressing human PTHR1; conditions: flow cytometry MFI, VHH-Alexafluor647, 1 h on ice; no plateau, estimate
# Text: Cells were pelleted by centrifugation and washed with PBS prior to analysis by flow cytometry (BD Accuri C6).
# Supplementary Figure 4. […] Cells
# (§1) (1 picture or pasted object on this page, not shown here)
# PTHR2 = test: Flow cytometry binding of VHH-Alexafluor647 to HEK293 expressing PTHR2; parameters: species or system human; conditions: 100 nM VHH-Alexafluor647, on ice
# Procedure: (§2) Fig. 3 Binding of VHHs to HEK293 cell lines stably transfected with PTHRs. a Analysis of VHH binding to PTHR1, PTHR2 and variants by flow cytometry. HEK293 cell lines in suspension were incubated on ice with 100 nM VHH sortagged with Alexafluor647, pelleted by centrifugation, washed and analyzed. Data for PTHR1-GFP is found in Supplementary Fig. 1. b Analysis of VHH binding with microscopy. Adherent HEK293 cells expressing human PTHR1 were stained on ice with 50 nM VHHPTHR-tetramethylrhodamine (TMR, red) and 30 nM PTH(1-20)-fluorescein (FAM, green) for 30 min. Following staining, cells were washed and treated with fixative in preparation for image acquisition either immediately after staining (0 min) or following a 15-min incubation in medium at room temperature (15 min). Nuclei (blue) were stained with DAPI. The scale bar (20 μm) is at the bottom left image and is applicable to each image in this panel. This experiment was repeated twice with similar results.
# (§3) Suspensions of cells in PBS were stained for 1 h on ice in the presence of indicated concentrations of VHH probes functionalized with Alexafluor647. Cells were pelleted by centrifugation and washed with PBS prior to analysis by flow cytometry (BD Accuri C6). […] Data were analyzed using FlowJo version 7.6. […]
# PTHR1GFP = target: T1, PTHR1GFP (Homo sapiens, UniProt Q03431); test: Flow cytometry binding of VHH-Alexafluor647 to HEK293 expressing PTHR1GFP; conditions: flow cytometry MFI, VHH-Alexafluor647, 1 h on ice; no plateau, estimate
# T1 sequence (Q03431 27-593): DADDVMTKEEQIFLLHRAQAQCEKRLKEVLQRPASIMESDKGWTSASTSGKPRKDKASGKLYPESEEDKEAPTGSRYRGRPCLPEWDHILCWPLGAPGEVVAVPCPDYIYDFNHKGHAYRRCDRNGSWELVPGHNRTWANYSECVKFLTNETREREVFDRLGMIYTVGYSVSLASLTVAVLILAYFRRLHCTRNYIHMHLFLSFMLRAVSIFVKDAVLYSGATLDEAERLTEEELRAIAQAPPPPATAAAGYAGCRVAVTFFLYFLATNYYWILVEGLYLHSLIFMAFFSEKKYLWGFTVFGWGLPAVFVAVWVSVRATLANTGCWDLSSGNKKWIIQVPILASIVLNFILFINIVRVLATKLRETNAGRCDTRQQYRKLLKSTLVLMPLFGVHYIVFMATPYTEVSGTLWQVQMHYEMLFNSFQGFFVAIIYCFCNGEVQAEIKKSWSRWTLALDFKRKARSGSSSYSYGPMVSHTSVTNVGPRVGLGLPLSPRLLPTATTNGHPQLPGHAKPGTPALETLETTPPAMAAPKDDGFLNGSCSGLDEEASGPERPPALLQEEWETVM
# Procedure: (§4) Suspensions of cells in PBS were stained for 1 h on ice in the presence of indicated concentrations of VHH probes functionalized with Alexafluor647. Cells were pelleted by centrifugation and washed with PBS prior to analysis by flow cytometry (BD Accuri C6). To select intact cells gating was performed on forward scatter/side scatter profiles for analysis (see Supplementary Fig. 4 for an example of the gating strategy). Data were analyzed using FlowJo version 7.6. The median fluorescent intensity (MFI) of stained cells was used to generate VHH binding dose response curves (Supplementary Fig. 4).
# Supplementary Figure 1. […] HEK293 cell lines in suspension were incubated on ice with 100 nM VHH sortagged with Alexafluor647, pelleted by centrifugation, washed and analyzed. […]
# PTHR1GFP. This weak staining is likely related to the inability of VHHGFP to tightly bind the pH-sensitive GFP variant known as pHluorin2 engrafted into the receptor(ref. 19, main text). c) HEK293 cells stably expressing PTHR1-GFP were treated with varied doses of the indicated peptides or conjugates and activation was assessed by measuring luminescence from a cAMP-activated luciferase variant. […]
# Supplementary Figure 4. […] Cells were centrifuged, washed, and analyzed by flow cytometry via gating of intact cells (live gate) based on forward scatter/side scatter profiles (panel a). […]
# rat PTHR1 (rPTHR1) = test: Flow cytometry binding of VHH-Alexafluor647 to HEK293 expressing rat PTHR1; conditions: 100 nM VHH-Alexafluor647, on ice
# Procedure: as §2, §3
# PTHR1_6E = test: Flow cytometry binding of VHH-Alexafluor647 to HEK293 expressing PTHR1_6E; parameters: species or system human; conditions: flow cytometry MFI, VHH-Alexafluor647, 1 h on ice
# Procedure: as §4
# Supplementary Figure 4. Assessment of VHH binding to PTHR1 variants by flow cytometry. Cells dislodged from tissue culture plates using trypsinization were incubated with varied concentrations of VHHs sortagged with AlexaFluor647 on ice for 1 h. Cells were centrifuged, washed, and analyzed by flow cytometry via gating of intact cells (live gate) based on forward scatter/side scatter profiles (panel a). (b) Data points represent median fluorescent intensity values ( individual data points shown, n = 2 independent replicates per condition). Connecting curves are the result of fitting a sigmoidal dose - response model to the data points. Precise estimates for VHH PTHR binding cannot be provided since the […]
# as §1
molecule,measurement,setting,value
B1,half-maximal staining concentration,PTHR1,100 to 200 nM
same,staining of cells,PTHR2,binds to PTHR1 but not PTHR2
same,half-maximal staining concentration,PTHR1GFP,100 to 200 nM
same,staining of cells,rat PTHR1 (rPTHR1),bound
same,half-maximal staining concentration,PTHR1_6E,100 to 200 nM
